# B1: BMAL1 bHLH PAS-AB (residues 62-441), chain of the CLOCK-BMAL1 heterodimer (domain or fragment)
# chain: not shown
# notes: BMAL1, mouse, bHLH PAS-AB, residues 62-441; Always present as part of m1; made a molecule of its own for the contacts that the structures and cross-links assign to BMAL1
# How the values were obtained:
# [1] = biological target: T1, histone H4 (human), in the nucleosome (human, UniProt P62805 1-103); assay: cryo-EM structure; CLOCK-BMAL1 on the endogenous Por enhancer nucleosome with tandem E-boxes 7 bp apart (1:3), GraFix cross-linked; 3.8 Å overall; settings: both partners purified
# T1 construct: Always part of m4; source: in the reconstituted nucleosome
# [2] = biological target: B1; assay: cryo-EM structure; CLOCK-BMAL1 on a W601-variant nucleosome with a solvent-exposed E-box at SHL+5.8 (1:1.5 NCP:TF), GraFix glutaraldehyde cross-linked; 3.6 Å overall, PAS domains 9-11 Å; settings: both partners purified
# [3] = biological target: the molecule itself; assay: cryo-EM structure; CLOCK-BMAL1 on the endogenous Por enhancer nucleosome with tandem E-boxes 7 bp apart (1:3), GraFix cross-linked; 3.8 Å overall
# [4] = biological target: histone H3.1 (human), in the nucleosome (human, UniProt P68431 1-136); assay: cross-linking; XL-MS with DSSO, TF and nucleosome mixed 1.5:1; CLOCK-BMAL1 with NCP SHL−6.2; settings: both partners purified
# [5] = biological target: T1, histone H4 (human), in the nucleosome; assay: cryo-EM structure; CLOCK-BMAL1 on a W601-variant nucleosome with a histone-facing E-box at SHL−6.2 (1:3 NCP:TF), GraFix cross-linked; 3.8 Å overall; PAS domains placed by Rosetta local docking with density scoring and one cross-link; settings: both partners purified
# [6] = biological target: T2, mouse BMAL1 bHLH (residues 73–135) with an additional C-terminal tryptophan (mouse, UniProt Q9WTL8 73-135); assay: SEC; CLOCK bHLH and BMAL1 bHLH purified separately, mixed at equimolar ratios, about one hour on ice, S75 10/300 GL column; settings: both partners purified
# T2 construct: BMAL1, mouse, bHLH, residues 73-135; additional tryptophan engineered at the C terminus to allow for UV detection; source: E. coli vector (pET28-derived), expressed and purified separately (HisTrap HP)
binder,measurement,setting,value
"CLOCK bHLH PAS-AB (residues 26-395), chain of the CLOCK-BMAL1 heterodimer (domain or fragment, mouse, UniProt O08785 26-395, looked up, CLOCK, mouse, bHLH PAS-AB, residues 26-395; Always present as part of m1; made a molecule of its own for the contacts that the structures and cross-links assign to CLOCK) VEEDDKDKAKRVSRNKSEKKRRDQFNVLIKELGSMLPGNARKMDKSTVLQKSIDFLRKHKETTAQSDASEIRQDWKPTFLSNEEFTQLMLEALDGFFLAIMTDGSIIYVSESVTSLLEHLPSDLVDQSIFNFIPEGEHSEVYKILSTHLLESDSLTPEYLKSKNQLEFCCHMLRGTIDPKEPSTYEYVRFIGNFKSLTSVSTSTHNGFEGTIQRTHRPSYEDRVCFVATVRLATPQFIKEMCTVEEPNEEFTSRHSLEWKFLFLDHRAPPIIGYLPFEVLGTSGYDYYHVDDLENLAKCHEHLMQYGKGKSCYYRFLTKGQQWIWLQTHYYITYHQWNSRPEFIVCTHTVVSYAEVRAERRRELGIEESL",binding result,[1],binds
same,binding result,[2],binds
"CLOCK-BMAL1 bHLH PAS-AB heterodimer (complex, CLOCK, mouse, bHLH PAS-AB, residues 26-395; BMAL1, mouse, bHLH PAS-AB, residues 62-441; also called CB; CLOCK-BMAL1 WT; source: insect cells (Spodoptera frugiperda or Hi5), purified (Ni-NTA, TEV cleavage, heparin, Superdex 200); copies: 1 + 1) chain 1: VEEDDKDKAKRVSRNKSEKKRRDQFNVLIKELGSMLPGNARKMDKSTVLQKSIDFLRKHKETTAQSDASEIRQDWKPTFLSNEEFTQLMLEALDGFFLAIMTDGSIIYVSESVTSLLEHLPSDLVDQSIFNFIPEGEHSEVYKILSTHLLESDSLTPEYLKSKNQLEFCCHMLRGTIDPKEPSTYEYVRFIGNFKSLTSVSTSTHNGFEGTIQRTHRPSYEDRVCFVATVRLATPQFIKEMCTVEEPNEEFTSRHSLEWKFLFLDHRAPPIIGYLPFEVLGTSGYDYYHVDDLENLAKCHEHLMQYGKGKSCYYRFLTKGQQWIWLQTHYYITYHQWNSRPEFIVCTHTVVSYAEVRAERRRELGIEESL chain 2: not shown",binding result,[3],binds
B1,binding result,[4],binds
same,binding result,[5],binds
"mouse CLOCK bHLH (residues 29–89) with an additional C-terminal tryptophan (domain or fragment, CLOCK, mouse, bHLH, residues 29-89; additional tryptophan engineered at the C terminus to allow for UV detection; source: E. coli vector (pET28-derived), expressed and purified separately (HisTrap HP)) DDKDKAKRVSRNKSEKKRRDQFNVLIKELGSMLPGNARKMDKSTVLQKSIDFLRKHKETTAW",binding result,[6],binds

# Reference: PMC10338342, “Cooperation between bHLH transcription factors and histones for DNA access” (Nature, 2023)
